Reference: article PMC6451933

Molecular target: t-SNARE complex (syntaxin 1 and SNAP25) (UniProt Q16623)
Sequence (Q16623 whole entry, chain 1 of 2): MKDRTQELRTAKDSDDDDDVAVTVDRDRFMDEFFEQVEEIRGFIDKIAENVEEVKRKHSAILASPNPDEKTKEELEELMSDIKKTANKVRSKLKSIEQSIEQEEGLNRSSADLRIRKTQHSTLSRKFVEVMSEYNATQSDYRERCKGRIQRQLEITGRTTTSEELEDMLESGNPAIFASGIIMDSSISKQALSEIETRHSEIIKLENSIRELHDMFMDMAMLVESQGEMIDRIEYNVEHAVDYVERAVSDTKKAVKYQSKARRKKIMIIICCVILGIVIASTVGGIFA
Sequence (chain, as listed by the source, chain 2 of 2): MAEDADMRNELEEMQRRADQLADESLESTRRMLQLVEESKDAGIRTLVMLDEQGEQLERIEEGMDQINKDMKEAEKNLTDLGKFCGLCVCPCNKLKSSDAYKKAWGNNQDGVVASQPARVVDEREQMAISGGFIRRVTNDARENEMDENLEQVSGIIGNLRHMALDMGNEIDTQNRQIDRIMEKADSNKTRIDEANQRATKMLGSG

- reconstituted liposome lipid-mixing assay (NBD dequenching), basal fusion without Munc18-1 of v-liposomes with t-SNARE liposomes, against WT VAMP2: 25%
Substance: VAMP2 p.Ser75Pro variant (from UniProt P63027 1-116) (natural protein)
